Experimental data as given in the supplement of paper PMC9112550, “Optimization of the antimicrobial peptide Bac7 by deep mutational scanning” (BMC Biology, 2022).

Each sequence was assayed on Escherichia coli TOP10 (assay: shrunken log2 fold change of peptide-encoding DNA abundance (4.5 h post-induction vs induction); higher = less antimicrobial activity (less host growth inhibition)). Conditions: time post-induction: 4.5 h; library: site-saturation at positions 5, 18, 19, 20.
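Further: peptides expressed intracellularly from a pBAD plasmid library in pooled LB shake-flask culture, induced with 0.3% L-arabinose, DNA abundance read by NGS, three biological replicates, DESeq2 with apeglm shrinkage.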

Sequence | shrunken log2 fold change
RRIRKRPPRLPRPRPRPEATPRP | 3.17
RRIRKRPPRLPRPRPRPECQPRP | 0.57
RRIRKRPPRLPRPRPRPECYPRP | -0.0555
RRIRKRPPRLPRPRPRPEDPPRP | 2.99
RRIRKRPPRLPRPRPRPEFGPRP | 0.0185
RRIRKRPPRLPRPRPRPEFQPRP | 0.0241
RRIRKRPPRLPRPRPRPEGKPRP | 0.201
RRIRKRPPRLPRPRPRPEGNPRP | 2.03
RRIRKRPPRLPRPRPRPEIFPRP | 0.368
RRIRKRPPRLPRPRPRPEIIPRP | -0.0419
RRIRKRPPRLPRPRPRPEINPRP | 0.0365
RRIRKRPPRLPRPRPRPEKWPRP | 0.422
RRIRKRPPRLPRPRPRPELMPRP | 1.24
RRIRKRPPRLPRPRPRPEMKPRP | 0.682
RRIRKRPPRLPRPRPRPENWPRP | 0.928
RRIRKRPPRLPRPRPRPEPNPRP | 0.737
RRIRKRPPRLPRPRPRPEPTPRP | 1.47
RRIRKRPPRLPRPRPRPEQAPRP | 0.776
RRIRKRPPRLPRPRPRPEQGPRP | 0.199
RRIRKRPPRLPRPRPRPERFPRP | -0.0391
RRIRKRPPRLPRPRPRPERKPRP | 0.582
RRIRKRPPRLPRPRPRPESIPRP | 0.235
RRIRKRPPRLPRPRPRPESRPRP | 0.625
RRIRKRPPRLPRPRPRPESSPRP | -0.000321
RRIRKRPPRLPRPRPRPETHPRP | 0.736

Sequence | shrunken log2 fold change
RRIRKRPPRLPRPRPRPETKPRP | 0.106
RRIRKRPPRLPRPRPRPEWRPRP | 0.295
RRIRKRPPRLPRPRPRPFARPRP | 0.187
RRIRKRPPRLPRPRPRPFCEPRP | -0.0765
RRIRKRPPRLPRPRPRPFDKPRP | 0.132
RRIRKRPPRLPRPRPRPFDRPRP | 0.375
RRIRKRPPRLPRPRPRPFECPRP | -0.0669
RRIRKRPPRLPRPRPRPFEPPRP | 0.00335
RRIRKRPPRLPRPRPRPFEVPRP | -0.0185
RRIRKRPPRLPRPRPRPFFIPRP | -0.061
RRIRKRPPRLPRPRPRPFFRPRP | 0.0596
RRIRKRPPRLPRPRPRPFHYPRP | -0.0954
RRIRKRPPRLPRPRPRPFIHPRP | -0.0282
RRIRKRPPRLPRPRPRPFIKPRP | -0.0863
RRIRKRPPRLPRPRPRPFILPRP | -0.0304
RRIRKRPPRLPRPRPRPFIRPRP | -0.21
RRIRKRPPRLPRPRPRPFIYPRP | -0.144
RRIRKRPPRLPRPRPRPFKPPRP | 0.0806
RRIRKRPPRLPRPRPRPFMLPRP | -0.0682
RRIRKRPPRLPRPRPRPFMSPRP | 0.0192
RRIRKRPPRLPRPRPRPFMWPRP | -0.078
RRIRKRPPRLPRPRPRPFNEPRP | 0.0442
RRIRKRPPRLPRPRPRPFQRPRP | -0.0265
RRIRKRPPRLPRPRPRPFQWPRP | 0.0233
RRIRKRPPRLPRPRPRPFRPPRP | -0.0332

Sequence | shrunken log2 fold change
RRIRKRPPRLPRPRPRPFSEPRP | -0.0185
RRIRKRPPRLPRPRPRPFSNPRP | -0.411
RRIRKRPPRLPRPRPRPFTAPRP | -0.291
RRIRKRPPRLPRPRPRPFTHPRP | 0.0159
RRIRKRPPRLPRPRPRPFTYPRP | -0.0389
RRIRKRPPRLPRPRPRPFVMPRP | 0.261
RRIRKRPPRLPRPRPRPFVWPRP | -0.0438
RRIRKRPPRLPRPRPRPFYEPRP | 0.0368
RRIRKRPPRLPRPRPRPFYKPRP | -0.456
RRIRKRPPRLPRPRPRPFYTPRP | -0.109
RRIRKRPPRLPRPRPRPGAHPRP | 0.663
RRIRKRPPRLPRPRPRPGEAPRP | 1.09
RRIRKRPPRLPRPRPRPGECPRP | 0.381
RRIRKRPPRLPRPRPRPGEMPRP | 1.62
RRIRKRPPRLPRPRPRPGGVPRP | 0.656
RRIRKRPPRLPRPRPRPGHLPRP | 0.0738
RRIRKRPPRLPRPRPRPGITPRP | 0.266
RRIRKRPPRLPRPRPRPGKYPRP | 0.0356
RRIRKRPPRLPRPRPRPGLMPRP | 0.343
RRIRKRPPRLPRPRPRPGNDPRP | 0.054
RRIRKRPPRLPRPRPRPGNVPRP | 0.00843
RRIRKRPPRLPRPRPRPGSCPRP | 0.346
RRIRKRPPRLPRPRPRPGTAPRP | 0.625
RRIRKRPPRLPRPRPRPGTCPRP | 0.258
RRIRKRPPRLPRPRPRPGTIPRP | -0.0588

Sequence | shrunken log2 fold change
RRIRKRPPRLPRPRPRPGTKPRP | 0.0906
RRIRKRPPRLPRPRPRPGTYPRP | -0.0508
RRIRKRPPRLPRPRPRPHDEPRP | 0.261
RRIRKRPPRLPRPRPRPHDKPRP | 0.176
RRIRKRPPRLPRPRPRPHDTPRP | -0.0804
RRIRKRPPRLPRPRPRPHFHPRP | 0.0831
RRIRKRPPRLPRPRPRPHGAPRP | 0.594
RRIRKRPPRLPRPRPRPHHCPRP | 0.0484
RRIRKRPPRLPRPRPRPHHNPRP | -0.421
RRIRKRPPRLPRPRPRPHHSPRP | -0.298
RRIRKRPPRLPRPRPRPHIDPRP | 0.0232
RRIRKRPPRLPRPRPRPHISPRP | -0.00759
RRIRKRPPRLPRPRPRPHKMPRP | 0.105
RRIRKRPPRLPRPRPRPHLDPRP | 0.00976
RRIRKRPPRLPRPRPRPHLKPRP | 0.0906
RRIRKRPPRLPRPRPRPHLLPRP | 0.00821
RRIRKRPPRLPRPRPRPHMDPRP | 0.0185
RRIRKRPPRLPRPRPRPHMTPRP | 0.0202
RRIRKRPPRLPRPRPRPHPCPRP | -0.22
RRIRKRPPRLPRPRPRPHPHPRP | 2.25
RRIRKRPPRLPRPRPRPHPMPRP | 0.224
RRIRKRPPRLPRPRPRPHQFPRP | -0.114
RRIRKRPPRLPRPRPRPHRYPRP | 0.321
RRIRKRPPRLPRPRPRPHSGPRP | 0.066
RRIRKRPPRLPRPRPRPHSLPRP | 0.0727

Sequence | shrunken log2 fold change
RRIRKRPPRLPRPRPRPHSNPRP | 0.095
RRIRKRPPRLPRPRPRPHSQPRP | -0.142
RRIRKRPPRLPRPRPRPHTSPRP | -0.469
RRIRKRPPRLPRPRPRPHVAPRP | 0.0884
RRIRKRPPRLPRPRPRPHVEPRP | -0.0479
RRIRKRPPRLPRPRPRPHWRPRP | 0.3
RRIRKRPPRLPRPRPRPIACPRP | 0.104
RRIRKRPPRLPRPRPRPIAIPRP | -0.282
RRIRKRPPRLPRPRPRPICLPRP | 0.141
RRIRKRPPRLPRPRPRPIDDPRP | 0.0889
RRIRKRPPRLPRPRPRPIDSPRP | 0.229
RRIRKRPPRLPRPRPRPIERPRP | 0.11
RRIRKRPPRLPRPRPRPIEVPRP | 0.287
RRIRKRPPRLPRPRPRPIGAPRP | 0.479
RRIRKRPPRLPRPRPRPIHEPRP | -0.0401
RRIRKRPPRLPRPRPRPIHFPRP | -0.241
RRIRKRPPRLPRPRPRPIIAPRP | -0.0395
RRIRKRPPRLPRPRPRPIIEPRP | -0.0922
RRIRKRPPRLPRPRPRPIIMPRP | -0.419
RRIRKRPPRLPRPRPRPILHPRP | -0.394
RRIRKRPPRLPRPRPRPINRPRP | -0.159
RRIRKRPPRLPRPRPRPINYPRP | -0.0959
RRIRKRPPRLPRPRPRPIPTPRP | 0.397
RRIRKRPPRLPRPRPRPIQVPRP | -0.137
RRIRKRPPRLPRPRPRPIRHPRP | 0.132

Sequence | shrunken log2 fold change
RRIRKRPPRLPRPRPRPISCPRP | 0.0993
RRIRKRPPRLPRPRPRPISSPRP | -0.0713
RRIRKRPPRLPRPRPRPITPPRP | 0.0433
RRIRKRPPRLPRPRPRPIVAPRP | 0.399
RRIRKRPPRLPRPRPRPIVFPRP | -0.0542
RRIRKRPPRLPRPRPRPIWDPRP | -0.0152
RRIRKRPPRLPRPRPRPIWIPRP | -0.0325
RRIRKRPPRLPRPRPRPIWSPRP | -0.0718
RRIRKRPPRLPRPRPRPIYQPRP | -0.0246
RRIRKRPPRLPRPRPRPIYTPRP | -0.0648
RRIRKRPPRLPRPRPRPKCIPRP | 0.317
RRIRKRPPRLPRPRPRPKFMPRP | -0.0124
RRIRKRPPRLPRPRPRPKGSPRP | 0.436
RRIRKRPPRLPRPRPRPKIAPRP | 0.35
RRIRKRPPRLPRPRPRPKIFPRP | 0.0692
RRIRKRPPRLPRPRPRPKKQPRP | -0.119
RRIRKRPPRLPRPRPRPKKSPRP | 0.575
RRIRKRPPRLPRPRPRPKLVPRP | 0.0448
RRIRKRPPRLPRPRPRPKMMPRP | 0.421
RRIRKRPPRLPRPRPRPKNNPRP | -0.047
RRIRKRPPRLPRPRPRPKNWPRP | 0.474
RRIRKRPPRLPRPRPRPKPEPRP | 0.781
RRIRKRPPRLPRPRPRPKQCPRP | 0.0637
RRIRKRPPRLPRPRPRPKSAPRP | 0.656
RRIRKRPPRLPRPRPRPKSMPRP | 0.375
